± gives the standard deviation of the averaged measurements.
Tested on: ATP
Experiment: switch fluorescence ratio, 500 uM ATP over buffer (Cy3 cluster intensity, sum of 5 cycles each) (fold (ratio)); higher = stronger signal-on switching upon ATP binding; sequences stand for … in TCGTCGGCAGCGTCAGATGTGTATAAGAGACAGTTTTTTTTTTTTTTTTTTTTTTTTT…TC
Conditions: aptamer strand: ATP DNA aptamer (quencher-CACCTGGGGGAGTATTGCGGAGGAAGG + anchor), 100 nM annealed; ATP concentration: 500 uM
Procedure, shortened: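 Exposure to 500 uM ATP lasted 15 min at 22 °C before imaging, and a selection-buffer image was taken beforehand, for Cy3-labelled switching-strand clusters on a modified Illumina MiSeq flow-cell annealed to 100 nM quencher-labelled ATP aptamer. Five buffer/ATP cycles were run with NaOH stripping and re-annealing between them. The fluorescence ratio per cluster is summed target-cycle over summed buffer-cycle Cy3 intensity, averaged per switch-domain sequence. Clusters outside 100-1000 RFU were excluded.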

Sequence	switch fluorescence ratio
CATCGGGGTC	1.07 ± 0.021
CATCGTGTGT	0.972 ± 0.011
CATCTACTGG	1.01 ± 0.018
CATCTAGGGG	0.999 ± 0.061
CATGAAACAT	1.06 ± 0.048
CATGAATGGT	0.962 ± 0.022
CATGACATTT	1.06 ± 0.028
CATGACGAAT	1.03 ± 0.026
CATGAGAAGG	1.0186 ± 0.001
CATGAGGTTC	0.974 ± 0.03
CATGAGTAGG	0.979 ± 0.016
CATGATAGGG	1.01 ± 0.031
CATGATAGGT	0.975 ± 0.057
CATGATCCGT	1.008 ± 0.0093
CATGATCTCT	0.987 ± 0.071
CATGATGTGT	1 ± 0.042
CATGATGTTC	1.02 ± 0.021
CATGATTAAT	0.962 ± 0.033
CATGATTAGT	0.951 ± 0.041
CATGCACTAT	1.08 ± 0.021
CATGCCAGTG	1.049 ± 0.0013
CATGCGGGGG	1.01 ± 0.013
CATGCGTAAA	1.238 ± 0.0069
CATGCTTTCC	1.17 ± 0.26
CATGCTTTCT	0.9836 ± 0.0079

Sequence	switch fluorescence ratio
CATGGCAACC	1.158 ± 0.0094
CATGGGAGAC	0.986 ± 0.022
CATGGGCAG	0.992 ± 0.034
CATGGGCTAG	0.997 ± 0.057
CATGGGGGAT	1.01 ± 0.035
CATGGGGGGT	0.994 ± 0.014
CATGGTCATT	1 ± 0.019
CATGGTCTCA	1.017 ± 0.0017
CATGGTGTGG	1.01 ± 0.031
CATGGTTCGT	0.975 ± 0.025
CATGGTTGGT	0.969 ± 0.025
CATGTATTAT	0.985 ± 0.034
CATGTCACGG	1.06 ± 0.039
CATGTGCGTG	1 ± 0.022
CATGTGGGGT	0.992 ± 0.034
CATGTGTTGT	0.987 ± 0.014
CATGTTAGGT	1.01 ± 0.025
CATGTTAGTA	1.02 ± 0.021
CATGTTCGGG	0.971 ± 0.012
CATGTTGATG	1.0056 ± 0.00049
CATGTTGGAG	0.9924 ± 0.0053
CATGTTGGGT	1.008 ± 0.007
CATGTTTAGG	0.986 ± 0.017
CATGTTTGGT	0.987 ± 0.013
CATTAAAGTA	1.1 ± 0.021

Sequence	switch fluorescence ratio
CATTAACGAG	1.013 ± 0.0062
CATTAACGGG	1.02 ± 0.013
CATTAAGGGC	0.962 ± 0.04
CATTAAGTGT	0.9713 ± 0.0034
CATTAGCTGG	1.03 ± 0.002
CATTAGGATA	1.0153 ± 0.00044
CATTAGGATG	0.9941 ± 0.0021
CATTAGGGGT	0.978 ± 0.012
CATTATATGT	1.01 ± 0.046
CATTATTAAA	0.976 ± 0.025
CATTATTGTT	0.999 ± 0.033
CATTCGGGTG	1.11 ± 0.027
CATTCTTCGC	1.15 ± 0.029
CATTGACCGC	1.09 ± 0.014
CATTGACTTT	1.02 ± 0.016
CATTGAGCGG	1 ± 0.018
CATTGAGGGT	0.968 ± 0.052
CATTGATTTT	1.013 ± 0.0022
CATTGCGATC	2.08 ± 0.3
CATTGGGCGA	0.982 ± 0.022
CATTGGGGGT	1.04 ± 0.021
CATTGGGTTT	0.975 ± 0.052
CATTGGTGAG	0.992 ± 0.032
CATTGGTGGT	0.989 ± 0.0039
CATTGTAAGA	0.962 ± 0.043

Sequence	switch fluorescence ratio
CATTGTATCG	1.01 ± 0.011
CATTTACCAT	1.03 ± 0.014
CATTTAGCTC	1.07 ± 0.015
CATTTATAAG	0.977 ± 0.013
CATTTATATT	0.986 ± 0.032
CATTTCAGTG	0.988 ± 0.025
CATTTGATCC	0.978 ± 0.0026
CATTTGGGTA	1.01 ± 0.014
CATTTGTGGG	0.993 ± 0.017
CATTTGTGTT	1.02 ± 0.046
CATTTTATAT	1.02 ± 0.012
CATTTTGAGC	0.996 ± 0.014
CATTTTGCGT	0.972 ± 0.035
CATTTTGGGC	0.992 ± 0.041
CATTTTTGGA	1.003 ± 0.0076
CATTTTTTTA	0.96084 ± 0.00082
CCAAGCCTGT	1.007 ± 0.0098
CCAAGCGTGC	1.76 ± 0.64
CCAAGCTGAA	1.22 ± 0.035
CCAAGGTGGA	1.1 ± 0.12
CCAAGGTGGG	1.1 ± 0.016
CCAATAAGGG	0.994 ± 0.048
CCAATAGGCA	1.046 ± 0.0078
CCAATGGCAG	1.155 ± 0.0045
CCAATGTTTT	0.98 ± 0.016

Sequence	switch fluorescence ratio
CCACACCATT	1.058 ± 0.004
CCACAGTGTT	1.61 ± 0.1
CCACCATTTT	1.13 ± 0.12
CCACCGGGGA	1.85 ± 0.49
CCACCGGTAT	1.69 ± 0.048
CCACCTATCA	1.07 ± 0.031
CCACCTGGCG	1.29 ± 0.017
CCACGATTAA	1.003 ± 0.008
CCACGCTCGC	2.33 ± 0.21
CCACGGGGTT	1.06 ± 0.072
CCACGTGAGG	1.03 ± 0.012
CCACTAGGGC	1.09 ± 0.017
CCACTGGGTG	4.394 ± 0.031
CCAGAACGAA	1.037 ± 0.0099
CCAGAATTCG	0.98 ± 0.024
CCAGACGCGG	1.14 ± 0.051
CCAGAGGCTA	1.1475 ± 0.00019
CCAGCGGTTG	1.025 ± 0.004
CCAGCTGCGG	1.01 ± 0.022
CCAGCTGGGT	1.0117 ± 0.0005
CCAGCTGGT	1.02 ± 0.042
CCAGCTTTTA	1.09 ± 0.052
CCAGGCAAGG	1.18 ± 0.019
CCAGGCGATG	1.05 ± 0.005
CCAGGCGCTA	1.611 ± 0.014

Sequence	switch fluorescence ratio
CCAGGCGTAT	1.032 ± 0.0023
CCAGGGCGGG	0.99 ± 0.043
CCAGGGGAAG	0.996 ± 0.017
CCAGGGGGAT	1.97 ± 1.3
CCAGGGTATC	1.064 ± 0.0063
CCAGGGTTGT	1.11 ± 0.037
CCAGGTAACA	1.03 ± 0.012
CCAGGTATTT	1.1 ± 0.016
CCAGGTCGAC	1.02 ± 0.063
CCAGGTGTTG	3.12 ± 0.44
CCAGTAGGAG	1.07 ± 0.051
CCAGTAGTCT	1.05 ± 0.019
CCAGTTAAGA	0.989 ± 0.024
CCAGTTCGGA	0.981 ± 0.059
CCAGTTGGGA	1 ± 0.032
CCATACGTAG	1.035 ± 0.0066
CCATCAAATA	1.01 ± 0.015
CCATGAACAT	1 ± 0.028
CCATGCCACA	1.05 ± 0.029
CCATGGAGGT	1.01 ± 0.034
CCATGGGAAA	0.961 ± 0.03
CCATGGGGGG	1.11 ± 0.18
CCATGTTTGG	0.996 ± 0.028
CCATTAATTT	1.11 ± 0.17
CCATTACGTT	1.04 ± 0.05

Sequence	switch fluorescence ratio
CCATTATAT	0.982 ± 0.043
CCATTGAGAC	1.04 ± 0.029
CCATTTGCGG	1.001 ± 0.0088
CCATTTTGTT	0.984 ± 0.015
CCATTTTTTA	0.9825 ± 0.0097
CCCATGCTTA	1.046 ± 0.003
CCCATGGACT	1.034 ± 0.0088
CCCCAAGACG	0.997 ± 0.011
CCCCATTTTA	1 ± 0.018
CCCCCCGGGG	1.61 ± 0.32
CCCCTGACAA	1.79 ± 0.059
CCCCTGTACT	1.227 ± 0.0074
CCCGAGGGGT	1.019 ± 0.0065
CCCGAGTGGG	0.992 ± 0.054
CCCGCATGAT	5.66 ± 0.2
CCCGCGGTTA	1.23 ± 0.032
CCCGGAGGCC	0.961 ± 0.034
CCCGGCATCT	1.2197 ± 0.00016
CCCGGGAATC	1.06 ± 0.059
CCCGGGATAT	1.06 ± 0.056
CCCGTGCCAG	1.02 ± 0.025
CCCGTTTTTG	0.986 ± 0.014
CCCTGTCGGC	0.997 ± 0.037
CCCTGTGAAA	0.975 ± 0.028
CCCTTGGGGG	1.01 ± 0.014

Sequence	switch fluorescence ratio
CCCTTGTGTG	1.43 ± 0.051
CCGAAAATAG	3.58 ± 0.48
CCGAACTATG	1.135 ± 0.0027
CCGAACTGGT	1.1 ± 0.05
CCGAATGAGG	0.995 ± 0.032
CCGAGACCGC	2.71 ± 0.2
CCGAGAGGGG	0.999 ± 0.041
CCGAGATTGC	1.95 ± 0.14
CCGAGGGAGA	1.25 ± 0.024
CCGAGGGCGC	1.2 ± 0.031
CCGAGGGGGA	1.26 ± 0.17
CCGAGGGTTA	1.34 ± 0.12
CCGAGGTTTT	1.33 ± 0.22
CCGAGTGCAG	2.24 ± 0.33
CCGATACGGT	1.08 ± 0.034
CCGATAGCGT	2.81 ± 0.45
CCGATTAATA	1.34 ± 0.028
CCGATTGGTA	1.027 ± 0.0057
CCGCAGCGGA	2.12 ± 0.27
CCGCAGGGGT	3.1 ± 2.8
CCGCCACCTG	1.56 ± 0.059
CCGCGGGGGG	1.08 ± 0.088
CCGCGGGTTG	1.05 ± 0.02
CCGCGGTCGT	1.3 ± 0.085
CCGCTATTGT	2.77 ± 0.4

From the supplement of paper PMC10126150
